Substrate in data set [1]: CC1=C(C(=O)O)N2C(=O)[C@@H](NC(=O)[C@H](N)c3ccc(O)cc3)[C@H]2SC1
Nature of the data set: Activity of recombinant human ABCC1 expressed in baculovirus infected insect Sf21 cell plasma membrane vesicles assessed as transporter-mediated drug uptake by liquid scintillation counting analysis in presence of ATP. In kind it is ADME.

Substrate in data set [2]: CO/N=C(\C(=O)N[C@@H]1C(=O)N2C(C(=O)O)=CCS[C@H]12)c1csc(N)n1
Nature of the data set: (§1) Activity of recombinant human MRP4 expressed in adenovirus infected HEK293 cell plasma membrane vesicles assessed as transporter-mediated drug uptake after 2 mins by Michaelis-Menten plot analysis in presence of ATP. In kind it is ADME, cell-based.

Substrate in data set [3]: Cc1nnc(SCC2=C(C(=O)O)N3C(=O)[C@@H](NC(=O)Cn4cnnn4)[C@H]3SC2)s1
Described as §1. In kind it is ADME, cell-based.

Substrate in data set [4]: CC1=C(C(=O)O)N2C(=O)[C@@H](NC(=O)[C@H](N)c3ccc(O)cc3)[C@H]2SC1
Nature of the data set: Activity of recombinant human ABCC4 expressed in baculovirus infected insect Sf21 cell plasma membrane vesicles assessed as transporter-mediated drug uptake by liquid scintillation counting analysis in presence of ATP. In kind it is ADME.

Substrate in data set [5]: CC1=C(C(=O)O)N2C(=O)[C@@H](NC(=O)[C@H](N)c3ccc(O)cc3)[C@H]2SC1
Nature of the data set: Activity of recombinant human ABCC3 expressed in baculovirus infected insect Sf21 cell plasma membrane vesicles assessed as transporter-mediated drug uptake by liquid scintillation counting analysis in presence of ATP. In kind it is ADME.

B1: Multidrug resistance-associated protein 1 (Homo sapiens) (protein)
chain: MALRGFCSADGSDPLWDWNVTWNTSNPDFTKCFQNTVLVWVPCFYLWACFPFYFLYLSRHDRGYIQMTPLNKTKTALGFLLWIVCWADLFYSFWERSRGIFLAPVFLVSPTLLGITMLLATFLIQLERRKGVQSSGIMLTFWLVALVCALAILRSKIMTALKEDAQVDLFRDITFYVYFSLLLIQLVLSCFSDRSPLFSETIHDPNPCPESSASFLSRITFWWITGLIVRGYRQPLEGSDLWSLNKEDTSEQVVPVLVKNWKKECAKTRKQPVKVVYSSKDPAQPKESSKVDANEEVEALIVKSPQKEWNPSLFKVLYKTFGPYFLMSFFFKAIHDLMMFSGPQILKLLIKFVNDTKAPDWQGYFYTVLLFVTACLQTLVLHQYFHICFVSGMRIKTAVIGAVYRKALVITNSARKSSTVGEIVNLMSVDAQRFMDLATYINMIWSAPLQVILALYLLWLNLGPSVLAGVAVMVLMVPVNAVMAMKTKTYQVAHMKSKDNRIKLMNEILNGIKVLKLYAWELAFKDKVLAIRQEELKVLKKSAYLSAVGTFTWVCTPFLVALCTFAVYVTIDENNILDAQTAFVSLALFNILRFPLNILPMVISSIVQASVSLKRLRIFLSHEELEPDSIERRPVKDGGGTNSITVRNATFTWARSDPPTLNGITFSIPEGALVAVVGQVGCGKSSLLSALLAEMDKVEGHVAIKGSVAYVPQQAWIQNDSLRENILFGCQLEEPYYRSVIQACALLPDLEILPSGDRTEIGEKGVNLSGGQKQRVSLARAVYSNADIYLFDDPLSAVDAHVGKHIFENVIGPKGMLKNKTRILVTHSMSYLPQVDVIIVMSGGKISEMGSYQELLARDGAFAEFLRTYASTEQEQDAEENGVTGVSGPGKEAKQMENGMLVTDSAGKQLQRQLSSSSSYSGDISRHHNSTAELQKAEAKKEETWKLMEADKAQTGQVKLSVYWDYMKAIGLFISFLSIFLFMCNHVSALASNYWLSLWTDDPIVNGTQEHTKVRLSVYGALGISQGIAVFGYSMAVSIGGILASRCLHVDLLHSILRSPMSFFERTPSGNLVNRFSKELDTVDSMIPEVIKMFMGSLFNVIGACIVILLATPIAAIIIPPLGLIYFFVQRFYVASSRQLKRLESVSRSPVYSHFNETLLGVSVIRAFEEQERFIHQSDLKVDENQKAYYPSIVANRWLAVRLECVGNCIVLFAALFAVISRHSLSAGLVGLSVSYSLQVTTYLNWLVRMSSEMETNIVAVERLKEYSETEKEAPWQIQETAPPSSWPQVGRVEFRNYCLRYREDLDFVLRHINVTINGGEKVGIVGRTGAGKSSLTLGLFRINESAEGEIIIDGINIAKIGLHDLRFKITIIPQDPVLFSGSLRMNLDPFSQYSDEEVWTSLELAHLKDFVSALPDKLDHECAEGGENLSVGQRQLVCLARALLRKTKILVLDEATAAVDLETDDLIQSTIRTQFEDCTVLTIAHRLNTIMDYTRVIVLDKGEIQEYGAPSDLLQQRGLFYSMAKDAGLV
Regarding B1, in data set [1], the Km was found to be 3900 µM and the Vmax turned out to be 0.0124 µmol/min.

B2: ATP-binding cassette sub-family C member 4 (Homo sapiens) (protein)
chain: MLPVYQEVKPNPLQDANLCSRVFFWWLNPLFKIGHKRRLEEDDMYSVLPEDRSQHLGEELQGFWDKEVLRAENDAQKPSLTRAIIKCYWKSYLVLGIFTLIEESAKVIQPIFLGKIINYFENYDPMDSVALNTAYAYATVLTFCTLILAILHHLYFYHVQCAGMRLRVAMCHMIYRKALRLSNMAMGKTTTGQIVNLLSNDVNKFDQVTVFLHFLWAGPLQAIAVTALLWMEIGISCLAGMAVLIILLPLQSCFGKLFSSLRSKTATFTDARIRTMNEVITGIRIIKMYAWEKSFSNLITNLRKKEISKILRSSCLRGMNLASFFSASKIIVFVTFTTYVLLGSVITASRVFVAVTLYGAVRLTVTLFFPSAIERVSEAIVSIRRIQTFLLLDEISQRNRQLPSDGKKMVHVQDFTAFWDKASETPTLQGLSFTVRPGELLAVVGPVGAGKSSLLSAVLGELAPSHGLVSVHGRIAYVSQQPWVFSGTLRSNILFGKKYEKERYEKVIKACALKKDLQLLEDGDLTVIGDRGTTLSGGQKARVNLARAVYQDADIYLLDDPLSAVDAEVSRHLFELCICQILHEKITILVTHQLQYLKAASQILILKDGKMVQKGTYTEFLKSGIDFGSLLKKDNEESEQPPVPGTPTLRNRTFSESSVWSQQSSRPSLKDGALESQDTENVPVTLSEENRSEGKVGFQAYKNYFRAGAHWIVFIFLILLNTAAQVAYVLQDWWLSYWANKQSMLNVTVNGGGNVTEKLDLNWYLGIYSGLTVATVLFGIARSLLVFYVLVNSSQTLHNKMFESILKAPVLFFDRNPIGRILNRFSKDIGHLDDLLPLTFLDFIQTLLQVVGVVSVAVAVIPWIAIPLVPLGIIFIFLRRYFLETSRDVKRLESTTRSPVFSHLSSSLQGLWTIRAYKAEERCQELFDAHQDLHSEAWFLFLTTSRWFAVRLDAICAMFVIIVAFGSLILAKTLDAGQVGLALSYALTLMGMFQWCVRQSAEVENMMISVERVIEYTDLEKEAPWEYQKRPPPAWPHEGVIIFDNVNFMYSPGGPLVLKHLTALIKSQEKVGIVGRTGAGKSSLISALFRLSEPEGKIWIDKILTTEIGLHDLRKKMSIIPQEPVLFTGTMRKNLDPFNEHTDEELWNALQEVQLKETIEDLPGKMDTELAESGSNFSVGQRQLVCLARAILRKNQILIIDEATANVDPRTDELIQKKIREKFAHCTVLTIAHRLNTIIDSDKIMVLDSGRLKEYDEPYVLLQNKESLFYKMVQQLGKAEAAALTETAKQVYFKRNYPHIGHTDHMVTNTSNGQPSTLTIFETAL
For B2, the figures for the Km in data set [2], in data set [3] and in data set [4] were 18 µM, 81 µM and 250 µM, respectively. Moreover, in data set [4], the Vmax is 0.0012 µmol/min.

B3: ATP-binding cassette sub-family C member 3 (Homo sapiens) (protein)
chain: MDALCGSGELGSKFWDSNLSVHTENPDLTPCFQNSLLAWVPCIYLWVALPCYLLYLRHHCRGYIILSHLSKLKMVLGVLLWCVSWADLFYSFHGLVHGRAPAPVFFVTPLVVGVTMLLATLLIQYERLQGVQSSGVLIIFWFLCVVCAIVPFRSKILLAKAEGEISDPFRFTTFYIHFALVLSALILACFREKPPFFSAKNVDPNPYPETSAGFLSRLFFWWFTKMAIYGYRHPLEEKDLWSLKEEDRSQMVVQQLLEAWRKQEKQTARHKASAAPGKNASGEDEVLLGARPRPRKPSFLKALLATFGSSFLISACFKLIQDLLSFINPQLLSILIRFISNPMAPSWWGFLVAGLMFLCSMMQSLILQHYYHYIFVTGVKFRTGIMGVIYRKALVITNSVKRASTVGEIVNLMSVDAQRFMDLAPFLNLLWSAPLQIILAIYFLWQNLGPSVLAGVAFMVLLIPLNGAVAVKMRAFQVKQMKLKDSRIKLMSEILNGIKVLKLYAWEPSFLKQVEGIRQGELQLLRTAAYLHTTTTFTWMCSPFLVTLITLWVYVYVDPNNVLDAEKAFVSVSLFNILRLPLNMLPQLISNLTQASVSLKRIQQFLSQEELDPQSVERKTISPGYAITIHSGTFTWAQDLPPTLHSLDIQVPKGALVAVVGPVGCGKSSLVSALLGEMEKLEGKVHMKGSVAYVPQQAWIQNCTLQENVLFGKALNPKRYQQTLEACALLADLEMLPGGDQTEIGEKGINLSGGQRQRVSLARAVYSDADIFLLDDPLSAVDSHVAKHIFDHVIGPEGVLAGKTRVLVTHGISFLPQTDFIIVLADGQVSEMGPYPALLQRNGSFANFLCNYAPDEDQGHLEDSWTALEGAEDKEALLIEDTLSNHTDLTDNDPVTYVVQKQFMRQLSALSSDGEGQGRPVPRRHLGPSEKVQVTEAKADGALTQEEKAAIGTVELSVFWDYAKAVGLCTTLAICLLYVGQSAAAIGANVWLSAWTNDAMADSRQNNTSLRLGVYAALGILQGFLVMLAAMAMAAGGIQAARVLHQALLHNKIRSPQSFFDTTPSGRILNCFSKDIYVVDEVLAPVILMLLNSFFNAISTLVVIMASTPLFTVVILPLAVLYTLVQRFYAATSRQLKRLESVSRSPIYSHFSETVTGASVIRAYNRSRDFEIISDTKVDANQRSCYPYIISNRWLSIGVEFVGNCVVLFAALFAVIGRSSLNPGLVGLSVSYSLQVTFALNWMIRMMSDLESNIVAVERVKEYSKTETEAPWVVEGSRPPEGWPPRGEVEFRNYSVRYRPGLDLVLRDLSLHVHGGEKVGIVGRTGAGKSSMTLCLFRILEAAKGEIRIDGLNVADIGLHDLRSQLTIIPQDPILFSGTLRMNLDPFGSYSEEDIWWALELSHLHTFVSSQPAGLDFQCSEGGENLSVGQRQLVCLARALLRKSRILVLDEATAAIDLETDNLIQATIRTQFDTCTVLTIAHRLNTIMDYTRVLVLDKGVVAEFDSPANLIAARGIFYGMARDAGLA
In the case of B3, in data set [5], the Km worked out at 2500 µM and the Vmax was 0.0006 µmol/min.

As usually defined, the Km is the concentration of substrate that gives half-maximal velocity. As usually defined, the Vmax is the top rate of the reaction or transport when substrate is in excess.

Source of the values: ChEMBL document CHEMBL3526024, “Oral availability of cefadroxil depends on ABCC3 and ABCC4” (Drug Metab Dispos, 2012).
